The target of this assay is T1, IRF3 (human (endogenous in HEK293T)), Q14653.
T1 chain: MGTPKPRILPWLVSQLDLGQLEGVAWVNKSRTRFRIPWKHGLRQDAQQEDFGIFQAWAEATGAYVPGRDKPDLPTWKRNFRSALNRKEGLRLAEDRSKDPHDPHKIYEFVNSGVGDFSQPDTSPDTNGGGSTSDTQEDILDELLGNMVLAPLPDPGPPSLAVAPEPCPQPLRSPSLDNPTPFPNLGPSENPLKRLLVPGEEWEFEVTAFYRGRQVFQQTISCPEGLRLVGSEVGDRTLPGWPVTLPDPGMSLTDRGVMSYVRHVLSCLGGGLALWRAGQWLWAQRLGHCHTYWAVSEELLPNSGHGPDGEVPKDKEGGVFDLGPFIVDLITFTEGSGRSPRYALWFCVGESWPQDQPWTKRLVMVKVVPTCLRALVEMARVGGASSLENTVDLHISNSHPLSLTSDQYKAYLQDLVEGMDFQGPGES
Put plainly: native gel or EMSA; cell-free assay: HEK293T S1 crude lysate with vRNA, 30 °C, 1 h; Native-PAGE and immunoblotting of IRF3. The settings on record: remark: other sources report otherwise. A general note: A gel shift assay detects complexes by their altered migration in electrophoresis.

B1: IRF3, Q14653 1-427 (natural protein)
chain: MGTPKPRILPWLVSQLDLGQLEGVAWVNKSRTRFRIPWKHGLRQDAQQEDFGIFQAWAEATGAYVPGRDKPDLPTWKRNFRSALNRKEGLRLAEDRSKDPHDPHKIYEFVNSGVGDFSQPDTSPDTNGGGSTSDTQEDILDELLGNMVLAPLPDPGPPSLAVAPEPCPQPLRSPSLDNPTPFPNLGPSENPLKRLLVPGEEWEFEVTAFYRGRQVFQQTISCPEGLRLVGSEVGDRTLPGWPVTLPDPGMSLTDRGVMSYVRHVLSCLGGGLALWRAGQWLWAQRLGHCHTYWAVSEELLPNSGHGPDGEVPKDKEGGVFDLGPFIVDLITFTEGSGRSPRYALWFCVGESWPQDQPWTKRLVMVKVVPTCLRALVEMARVGGASSLENTVDLHISNSHPLSLTSDQYKAYLQDLVEGMDFQGPGES
With B1, the stoichiometry N (as a rule, the number of molecules, sites or subunits per partner or assembly) was 2.

The values above are taken from paper PMC5418627.
